Source: patent US10137183B2, “Peptide compositions having 4 linked CTL epitopes and uses thereof” (TAIHO PHARMACEUTICAL CO., LTD., priority 2013, dated 2018)

Target: T1, Human 20S immunoproteasomes (Homo sapiens, UniProt P28062+P28065+P40306)
T1 construct: purchased R&D systems
Assay: Peptide cleavage with human 20S immunoproteasomes (i20S), LC/MS-MS of fragments
Type: biochemical
Settings: 66.7 μg/mL peptide, 37° C., 1, 2 or 4 hours
Method: Cleavage samples of peptides having 4 linked epitopes were prepared in the manner described below. Specifically, peptides having 4 linked epitopes were diluted to 66.7 μg/mL with a reaction buffer (20 mM HEPES-KOH, pH 7.8, 2 mM MgAc2, 2 mM dithiothreitol), and the resultant was dispensed into reaction tubes in amounts of 300 μL per tube. Human 20S immunoproteasomes (R&D systems) were added thereto in amounts of 2 μg per tube, the mixtures were agitated, and the resultants were then subjected to incubation with shaking at 37° C. for 1, 2, or 4 hours. […]
Subsequently, the obtained cleavage samples of the peptides having 4 linked epitopes were applied to the LC/MS-MS systems (Acquity UPLC system, Waters; Synapt G2 HDMS, Waters), so as to perform comprehensive analysis of the molecular weights of the peptide fragments. With the use of analytical software (MassLynx, ver. 4.1, SCN712, Waters), the samples were analyzed, and the peptide fragments were identified. The peptides having 4 linked epitopes were evaluated to be cleavable upon development of any of a peptide in which the epitope peptide was cleaved, a peptide comprising arginine residues added to the N terminus of the epitope peptide, or a peptide comprising an arginine dimer added to the N terminus of the epitope peptide, as a result of cleavage with immunoproteasomes.

| Sequence | cleavage determining the C terminal amino acids of the CTL epitope peptide |
| --- | --- |
| ILEQSGEWWK (listed as Homo sapiens) [PEP10] | required to be located at positions nearest to the C terminus |
| ASLDSDPWV (listed as Homo sapiens) [PEP2] | required to be located at positions nearest to the C terminus |
